# Experimental data reported in patent US20240417462A1.
# Target: TIGIT on PHA-activated human peripheral blood mononuclear cells (PBMC) (human) (UniProt Q495A1)
# Assay: cell-based or functional assay
# TIGIT on PHA-activated human peripheral blood mononuclear cells (PBMC) (human), sequence (Q495A1 22-244): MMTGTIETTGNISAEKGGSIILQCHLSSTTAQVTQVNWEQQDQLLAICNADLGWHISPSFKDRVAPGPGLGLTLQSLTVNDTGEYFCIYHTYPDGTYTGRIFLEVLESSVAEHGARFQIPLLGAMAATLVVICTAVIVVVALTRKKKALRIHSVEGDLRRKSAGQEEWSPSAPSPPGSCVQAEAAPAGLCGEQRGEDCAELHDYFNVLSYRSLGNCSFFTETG
substance,measurement,value
Tiragolumab (antibody),"IFNγ release, increase over no antibody",16%
